Reference: patent publication US20250019438A1 (AstraZeneca / MedImmune, published 2025)

How the values were obtained:
[1] = molecular target: T1, Human CD3 on HPB-ALL and Jurkat cells (human, UniProt P07766 23-207; P04234 22-171; P09693 23-182); test: flow cytometry on HPB-ALL cells (hCD3++), EGFR-CD3 DuetMab, detection with Alexa Fluor 647 goat F(ab')2 anti-human IgG Fcγ
T1 construct: whole, on cells; also called hCD3+; human CD3+ cells

[2] = molecular target: Biotinylated recombinant human CD3εδ (Acro Biosystems, CDD-H82W6) (human) (UniProt P07766); test: Octet BLI, biotinylated CD3εδ on streptavidin sensors, 1:1 model
[3] = molecular target: T2, Cynomolgus monkey CD3 on HSC-F cells (cynomolgus monkey, UniProt Q95LI5 22-198; Q95LI8 22-171; Q95LI7 23-181); test: flow cytometry on HSC-F cells (cyCD3+), detection with Alexa Fluor 647 goat F(ab')2 anti-human IgG Fcγ
T2 construct: whole, on cells; CD3 complex; also called cyCD3+; cynomolgus CD3+ cells
Procedure: (§1) Flow Cytometry was used to determine specific cell surface antigen binding. The human leukemia T cell lines HPB-ALL, Jurkat, Jurkat TCR KO, and cynomolgus T cell line HSC-F were used to assess human CD3 and cynomolgus CD3 binding, respectively. Briefly, 1×10⁵ cells were suspended in FACS buffer (1×PBS, pH 7.2 supplemented with 2% heat-inactivated FBS, 0.1% sodium azide and 2 mM EDTA) and placed into each well of a round-bottom 96-well plate. Antibodies were diluted to various concentrations using FACS buffer and added to the cells. Antibodies and cells were washed twice with FACS buffer after incubation at 4° C. for 30 min. Cell surface antigen binding of antibodies was detected with Alexa Fluor 647-conjugated goat F(ab′)₂ fragment specifically against human IgG Fcγ fragment. Data was collected using a BD FACSymphony A3 Cell Analyzer (BD Biosciences). Data was analyzed with FlowJo v10.6.1 and plotted using GraphPad Prism v9.0.0.

[4] = molecular target: T2, Cynomolgus monkey CD3 on HSC-F cells; test: flow cytometry on HSC-F cells (cyCD3++), detection with Alexa Fluor 647 goat F(ab')2 anti-human IgG Fcγ
Procedure: as §1

[5] = molecular target: T1, Human CD3 on HPB-ALL and Jurkat cells; test: flow cytometry on HPB-ALL cells (hCD3+), detection with Alexa Fluor 647 goat F(ab')2 anti-human IgG Fcγ
Procedure: as §1

T2 sequence (Q95LI5 22-198, chain 1 of 3): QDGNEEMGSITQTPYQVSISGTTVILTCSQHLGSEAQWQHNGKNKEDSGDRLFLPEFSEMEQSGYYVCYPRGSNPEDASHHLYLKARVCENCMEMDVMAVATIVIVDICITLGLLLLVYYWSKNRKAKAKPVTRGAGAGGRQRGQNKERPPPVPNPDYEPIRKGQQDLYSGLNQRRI
T2 sequence (Q95LI8 22-171, chain 2 of 3): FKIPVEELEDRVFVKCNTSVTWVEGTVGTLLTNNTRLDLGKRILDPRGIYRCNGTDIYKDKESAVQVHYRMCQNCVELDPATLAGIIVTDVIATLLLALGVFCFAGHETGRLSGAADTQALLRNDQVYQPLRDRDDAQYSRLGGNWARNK
T2 sequence (Q95LI7 23-181, chain 3 of 3): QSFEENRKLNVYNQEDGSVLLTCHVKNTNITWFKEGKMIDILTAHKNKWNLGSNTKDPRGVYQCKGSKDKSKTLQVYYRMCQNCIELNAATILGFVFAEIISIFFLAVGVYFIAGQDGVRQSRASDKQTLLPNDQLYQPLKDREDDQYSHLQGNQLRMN
Biotinylated recombinant human CD3εδ (Acro Biosystems, CDD-H82W6) (human), sequence (P07766 23-126, stated change not applied, chain 1 of 2): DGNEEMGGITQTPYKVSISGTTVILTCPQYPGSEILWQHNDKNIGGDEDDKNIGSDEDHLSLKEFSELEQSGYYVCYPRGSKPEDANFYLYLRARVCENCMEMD
Biotinylated recombinant human CD3εδ (Acro Biosystems, CDD-H82W6) (human), sequence (P04234 22-105, stated change not applied, chain 2 of 2, further chain): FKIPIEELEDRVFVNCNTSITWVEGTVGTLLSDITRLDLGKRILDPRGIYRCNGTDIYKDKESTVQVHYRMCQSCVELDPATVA
T1 sequence (P07766 23-207, chain 1 of 3): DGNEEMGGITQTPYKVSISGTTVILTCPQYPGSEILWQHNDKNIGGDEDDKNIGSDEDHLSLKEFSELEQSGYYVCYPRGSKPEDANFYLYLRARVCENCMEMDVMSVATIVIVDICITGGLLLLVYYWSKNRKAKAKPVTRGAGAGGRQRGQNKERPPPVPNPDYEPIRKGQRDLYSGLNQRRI
T1 sequence (P04234 22-171, chain 2 of 3): as the sequence (Q95LI8 22-171, chain 2 of 3) above, with V5I, K15N, V20I, T32S, N33D, N34I, A64T, N74S, L83V, R141H counted along it
T1 sequence (P09693 23-182, chain 3 of 3): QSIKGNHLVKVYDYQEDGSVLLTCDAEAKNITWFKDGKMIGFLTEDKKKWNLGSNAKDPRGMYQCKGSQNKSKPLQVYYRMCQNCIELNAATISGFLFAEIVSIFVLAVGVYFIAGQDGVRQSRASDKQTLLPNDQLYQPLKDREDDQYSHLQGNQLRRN

B1: EGFR-CD3 DuetMab with the parental anti-CD3 arm (bispecific antibody, part only; not given: anti-EGFR arm, constant regions, V domains shown, not shown: another chain or arm of the molecule; a dimerising Fc or GST; small tags and cut ends)
VH: QVQLVESGGGVVQPGRSLRLSCAASGFTFTKAWMHWVRQAPGKQLEWVAQIKDKSNSYATYYADSVKGRFTISRDDSKNTLYLQMNSLRAEDTAVYYCRGVYYALSPFDYWGQGTLVTVSS
VL: DIVMTQTPLSLSVTPGQPASISCKSSQSLVHNNANTYLSWYLQKPGQSPQSLIYKVSNRFSGVPDRFSGSGSGTDFTLKISRVEAEDVGVYYCGQGTQYPFTFGSGTKVEIK
An EC50 (read off the curve) [1] of 50 nM, a Kd [2] of 24.3 nM and a koff [2] of 0.00105 s⁻¹ were found for B1 in this work. For the same binder, the kon [2] was 43300 M⁻¹ s⁻¹.

B2: AZ Vκ+AZ VH IgG1-TM (antibody, V domains shown)
VH: QVQLVESGGGVVQPGRSLRLSCAASGFTFTKAWMHWVRQAPGKQLEWVAQIKDKSNSYATYYADSVKGRFTISRDDSKNTLYLQMNSLRAEDTAVYYCRGVYYALSPFDYWGQGTLVTVSS
VL: DIVMTQTPLSLSVTPGQPASISCKSSQSLVHNNANTYLSWYLQKPGQSPQSLIYKVSNRFSGVPDRFSGSGSGTDFTLKISRVEAEDVGVYYCGQGTQYPFTFGSGTKVEIK
notes: also called parental AZ Vκ+AZ VH IgG1-TM; parental anti-CD3 antibody
In the case of B2, the “EC50 (read off the curve)” value [3] is reported as about 40 nM and the “EC50 (read off the curve)” value [4] is reported as about 40 nM.

B3: AZ Vκ 7 + AZ VH 13 (antibody, IgG1, V domains shown)
VH: EVQLVESGGALVKPGGSLRLSCAASGFTFTKAYMHWVRQAPGKQLEWVAQIKDRSQSYATYYAESVKGRFTISRDDSKNTLYLQMNSLKTEDTAVYYCRGVYYALSPFDYWGQGTLVTVSS
VL: DIVMTQSPLSLPVTPGEPASISCRSSQSLVHNTGNTYLSWYLQKPGQSPQSLIYKVSNRASGVPDRFSGSGSGTDFTLKISRVEAEDVGVYYCGQGTQYPFTFGSGTKVEIK
notes: member of the group m34
B3: binds [5]; binds [4].

B4: AZ Vκ 7 + AZ VH 21 (antibody, IgG1, V domains shown)
VH: EVQLVESGGALVKPGGSLRLSCAASGFTFSNAYMHWVRQAPGKQLEWVAQIKDRSQSYATYYAESVKGRFTISRDDSKNTLYLQMNSLKTEDTAVYYCRGVYYALSPFDYWGQGTLVTVSS
VL: DIVMTQSPLSLPVTPGEPASISCRSSQSLVHNTGNTYLSWYLQKPGQSPQSLIYKVSNRASGVPDRFSGSGSGTDFTLKISRVEAEDVGVYYCGQGTQYPFTFGSGTKVEIK
notes: member of the group m34
B4: binds [5]; binds [4].
